Assay results published in IntAct's records for PubMed 31515488.

B1: KAT8 regulatory NSL complex subunit 1 (Homo sapiens), Q7Z3B3 (parent)
chain: MAAMAPALTDAAAEAHHIRFKLAPPSSTLSPGSAENNGNANILIAANGTKRKAIAAEDPSLDFRNNPTKEDLGKLQPLVASYLCSDVTSVPSKESLKLQGVFSKQTVLKSHPLLSQSYELRAELLGRQPVLEFSLENLRTMNTSGQTALPQAPVNGLAKKLTKSSTHSDHDNSTSLNGGKRALTSSALHGGEMGGSESGDLKGGMTNCTLPHRSLDVEHTTLYSNNSTANKSSVNSMEQPALQGSSRLSPGTDSSSNLGGVKLEGKKSPLSSILFSALDSDTRITALLRRQADIESRARRLQKRLQVVQAKQVERHIQHQLGGFLEKTLSKLPNLESLRPRSQLMLTRKAEAALRKAASETTTSEGLSNFLKSNSISEELERFTASGIANLRCSEQAFDSDVTDSSSGGESDIEEEELTRADPEQRHVPLRRRSEWKWAADRAAIVSRWNWLQAHVSDLEYRIRQQTDIYKQIRANKGLIVLGEVPPPEHTTDLFLPLSSEVKTDHGTDKLIESVSQPLENHGAPIIGHISESLSTKSCGALRPVNGVINTLQPVLADHIPGDSSDAEEQLHKKQRLNLVSSSSDGTCVAARTRPVLSCKKRRLVRPNSIVPLSKKVHRNSTIRPGCDVNPSCALCGSGSINTMPPEIHYEAPLLERLSQLDSCVHPVLAFPDDVPTSLHFQSMLKSQWQNKPFDKIKPPKKLSLKHRAPMPGSLPDSARKDRHKLVSSFLTTAKLSHHQTRPDRTHRQHLDDVGAVPMVERVTAPKAERLLNPPPPVHDPNHSKMRLRDHSSERSEVLKHHTDMSSSSYLAATHHPPHSPLVRQLSTSSDSPAPASSSSQVTASTSQQPVRRRRGESSFDINNIVIPMSVAATTRVEKLQYKEILTPSWREVDLQSLKGSPDEENEEIEDLSDAAFAALHAKCEEMERARWLWTTSVPPQRRGSRSYRSSDGRTTPQLGSANPSTPQPASPDVSSSHSLSEYSHGQSPRSPISPELHSAPLTPVARDTPRHLASEDTRCSTPELGLDEQSVQPWERRTFPLAHSPQAECEDQLDAQERAARCTRRTSGSKTGRETEAAPTSPPIVPLKSRHLVAAATAQRPTHR
partner: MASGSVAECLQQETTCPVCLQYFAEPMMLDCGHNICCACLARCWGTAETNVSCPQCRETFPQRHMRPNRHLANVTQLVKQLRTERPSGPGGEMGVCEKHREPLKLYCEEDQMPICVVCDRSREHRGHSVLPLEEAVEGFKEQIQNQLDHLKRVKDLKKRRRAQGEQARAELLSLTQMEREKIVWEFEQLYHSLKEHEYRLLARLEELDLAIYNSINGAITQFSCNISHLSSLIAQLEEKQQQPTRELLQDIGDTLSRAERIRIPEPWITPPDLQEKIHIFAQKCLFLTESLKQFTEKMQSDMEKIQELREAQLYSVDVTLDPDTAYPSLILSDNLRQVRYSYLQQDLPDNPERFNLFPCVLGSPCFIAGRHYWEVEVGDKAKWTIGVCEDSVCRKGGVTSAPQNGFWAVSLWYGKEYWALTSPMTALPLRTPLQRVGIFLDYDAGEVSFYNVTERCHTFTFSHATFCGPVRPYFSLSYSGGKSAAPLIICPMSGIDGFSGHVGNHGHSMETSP
B2: Four and a half LIM domains protein 5 (Homo sapiens), Q5TD97 (parent)
chain: MTTAHFYCQYCTASLLGKKYVLKDDSPYCVTCYDRVFSNYCEECKKPIESDSKDLCYKDRHWHEGCFKCTKCNHSLVEKPFAAKDERLLCTECYSNECSSKCFHCKRTIMPGSRKMEFKGNYWHETCFVCENCRQPIGTKPLISKESGNYCVPCFEKEFAHYCNFCKKVITSGGITFCDQLWHKECFLCSGCRKDLCEEQFMSRDDYPFCVDCYNHLYANKCVACSKPISGLTGAKFICFQDSQWHSECFNCGKCSVSLVGKGFLTQNKEIFCQKCGSGMDTDI
partner: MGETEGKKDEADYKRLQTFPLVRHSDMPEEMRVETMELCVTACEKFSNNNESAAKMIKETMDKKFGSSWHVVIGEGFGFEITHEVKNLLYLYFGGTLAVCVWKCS
B3: Coiled-coil domain-containing protein 33 (Homo sapiens), Q8N5R6-5 (parent)
chain: MGEPGPPSPPAPKAAPGLIDSFSEMNNYRRAMQKMAEDILSLRRQASILEGENRILRSRLAQQEEEEGQGKASEAQNTVSMKQKLLLSELDMKKLRDRVQHLQNELIRKNDREKELLLLYQAQQPQAALLKQYQGKLQKMKALEETVRHQEKVIEKMERVLEDRLQDRSKPPPLNRQQGKPYTGFPMLSASGLPLGSMGENLPVELYSVLLAENAKLRTELDKNRHQQAPIILQQQALPVDPGELGAGGDLTERLQETHGPGHSECTETLPAQDLLSGTSDKFNLLAKLEHAQSRILSLESQLEDSARRWGREKQDLATRLQEQEKGFRHPSNSIIIEQPVSDPPGVAPRGSGGGAGSHRTPKVTGP
partner: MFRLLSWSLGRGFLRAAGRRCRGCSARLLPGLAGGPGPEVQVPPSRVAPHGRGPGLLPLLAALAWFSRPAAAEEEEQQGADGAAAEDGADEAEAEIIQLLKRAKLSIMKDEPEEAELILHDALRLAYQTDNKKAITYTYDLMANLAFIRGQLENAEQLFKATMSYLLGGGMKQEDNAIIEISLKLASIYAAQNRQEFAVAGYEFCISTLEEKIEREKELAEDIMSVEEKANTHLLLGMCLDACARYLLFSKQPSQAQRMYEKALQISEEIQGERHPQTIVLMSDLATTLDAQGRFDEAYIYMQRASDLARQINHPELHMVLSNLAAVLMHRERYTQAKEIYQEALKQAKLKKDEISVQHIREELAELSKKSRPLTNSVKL
B4: Annexin A10 (Homo sapiens), Q9UJ72 (parent)
chain: MFCGDYVQGTIFPAPNFNPIMDAQMLGGALQGFDCDKDMLINILTQRCNAQRMMIAEAYQSMYGRDLIGDMREQLSDHFKDVMAGLMYPPPLYDAHELWHAMKGVGTDENCLIEILASRTNGEIFQMREAYCLQYSNNLQEDIYSETSGHFRDTLMNLVQGTREEGYTDPAMAAQDAMVLWEACQQKTGEHKTMLQMILCNKSYQQLRLVFQEFQNISGQDMVDAINECYDGYFQELLVAIVLCVRDKPAYFAYRLYSAIHDFGFHNKTVIRILIARSEIDLLTIRKRYKERYGKSLFHDIRNFASGHYKKALLAICAGDAEDY
partner: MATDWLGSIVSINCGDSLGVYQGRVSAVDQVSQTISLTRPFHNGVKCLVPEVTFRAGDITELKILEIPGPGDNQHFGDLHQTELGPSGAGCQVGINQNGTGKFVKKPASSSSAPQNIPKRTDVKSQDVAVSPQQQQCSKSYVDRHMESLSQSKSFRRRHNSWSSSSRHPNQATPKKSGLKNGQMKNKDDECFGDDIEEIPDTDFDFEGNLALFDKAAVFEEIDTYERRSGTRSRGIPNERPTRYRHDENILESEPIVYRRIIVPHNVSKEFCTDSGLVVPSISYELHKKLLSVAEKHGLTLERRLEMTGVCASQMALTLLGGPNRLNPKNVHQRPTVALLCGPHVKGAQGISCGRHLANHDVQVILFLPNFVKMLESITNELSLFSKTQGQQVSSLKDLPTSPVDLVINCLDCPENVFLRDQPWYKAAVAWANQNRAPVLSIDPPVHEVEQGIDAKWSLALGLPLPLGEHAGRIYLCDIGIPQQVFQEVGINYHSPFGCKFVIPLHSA

Variants of: B1
Settings: with tri27_human TRIM27, P14373
For N225D, the “effect of a mutation on the interaction” value was “with no effect”.
For K104T, the “effect of a mutation on the interaction” value was “with no effect”.

Variants of: B2
Settings: with dnal4_human DNAL4, O96015
For D24Y, the “effect of a mutation on the interaction” value was “with no effect”.
In the case of R204G, the “effect of a mutation on the interaction” value is reported as “with no effect”.
With R60W the “effect of a mutation on the interaction” value was “with no effect”.
M202L was tested, and the “effect of a mutation on the interaction” value was “with no effect”.

Variants of: B3
Settings: with ttc19_human TTC19, Q6DKK2
M25V was tested, and the “effect of a mutation on the interaction” value was “with no effect”.
R30L was tested, and the “effect of a mutation on the interaction” value was “with no effect”.
For G196R, the “effect of a mutation on the interaction” value was “with no effect”.
With P203L the “effect of a mutation on the interaction” value was “with no effect”.

Variants of: B4
Settings: with edc3_human EDC3, Q96F86
M62T was tested, and the “effect of a mutation on the interaction” value was “disrupting interaction strength”.
M71L was tested, and the “effect of a mutation on the interaction” value was “with no effect”.
